Substitutions are numbered along the chain they refer to. Names and notes keep the numbering of the source.
How the values were obtained:
[1] = biological target: T1, recombinant hSIRPa (Sino Biologicals, reference 11612-H08H) (human, UniProt P78324 31-370); assay: ELISA on immobilized SIRPa-His, peroxidase anti-human IgG, DO 450nm [panel CD86]
T1 construct: also called SIRPa-His; human SIRPa-His; not shown: His tag (histidine tail)
Description: (§1) Method: For ELISA assay, recombinant hSIRPa (Sino Biologicals, Beijing, China; reference 11612-H08H) was immobilized on plastic at 0.5 μg/ml in carbonate buffer (pH9.2) and different modified anti-SIRPa antibodies were added to measure binding to SIRPa.

[2] = biological target: T1, recombinant hSIRPa (Sino Biologicals, …); assay: competition ELISA on coated SIRPa-His; competitor biotinylated CD47-Fc at 6 ug/ml, streptavidin-peroxidase [panel CD86]
Description: (§2) Method: For competitive ELISA assay, recombinant hSIRPa (Sino Biologicals, Beijing, China; reference 11612-H08H) was immobilized on plastic at 0.5 μg/ml in carbonate buffer (pH9.2).

CTLA4-Fc = biological target: T2, CTLA4-Fc (human, UniProt P16410 36-161, limits assumed); assay: ELISA: modified antibody (concentration on the axis) captured on SIRPa-His, then CTLA4-Fc, detected with mouse anti-human CTLA4 [panel CD86]
T2 construct: not shown: Fc; not specified
Source text: (§3) FIG. 24. Ligand binding assay with the different modified anti-SIRPa antibodies by ELISA.

[3] = biological target: T1, recombinant hSIRPa (Sino Biologicals, …); assay: ELISA on immobilized SIRPa-His, peroxidase anti-human IgG, DO 450nm [panel 4-1BBL]
Description: as §1

4-1BBFcHis = biological target: T3, 4-1BBFcHis (UniProt Q07011 24-186); assay: ELISA: modified antibody (concentration on the axis) captured on SIRPa-His, then 4-1BBFcHis, detected with mouse anti-His [panel 4-1BBL]
T3 construct: not shown: Fc and His tag; not specified
Source text: as §3

[4] = biological target: T1, recombinant hSIRPa (Sino Biologicals, …); assay: SPR (Biacore); SIRPa-His immobilized on CM5 chip, antibody injected
Description: FIG. 2. Affinity analysis by Biacore of anti-SIRP antibodies on human SIRPa recombinant protein. SIRPa-His recombinant protein was immobilized onto a CM5 chip at 5 μg/ml (500 RU) and the indicated antibodies were added at different concentration.
Method: Recombinant hSIRPa (Sino Biologicals, Beijing, China; reference 11612-H08H) was immobilized into a CM5 sensor chip (GeHealthcare; France) at 5 μg/ml (500 RU) and antibodies were applied at different concentrations with a flow rate of 40 μl/min. Analysis was performed with a BIAcore 3000 (Biacore, GeHealthcare).

[5] = biological target: T4, recombinant hSIRPb-His (Antibodies-online, reference ABIN3077231) (human, UniProt Q5TFQ8 30-371); assay: BLI (Blitz); SIRPb-His on Ni-NTA biosensor, antibody at 20 ug/ml [B, table A]
T4 construct: also called SIRPb-His (Blitz); not shown: His tag
Description: FIG. 7. (A) Affinity analysis by Blitz of anti-SIRP antibodies on human SIRPb recombinant protein. SIRPb-His recombinant protein was immobilized onto a NINTA biosensor and the indicated antibodies were added at 20 μg/ml. […] (B) Binding analysis of anti-SIRP antibodies (human SIRPb-His coating and anti-human kappa detection).
(§4) Method: This method was performed with a Blitz (Forte Bio; USA; reference C22-2 No 61010-1). Recombinant hSIRPb-His (Antibodies-online; USA; reference ABIN3077231) was immobilized at 10 μg/ml by histidine tail into a Ni-NTA biosensor (Forte Bio; USA; reference 18-0029) for 30 seconds. Then, an anti-SIRPa antibody was associated at 20 μg/mL for 120 seconds. The dissociation of anti-SIRPa antibody was made in kinetics buffer for 120 seconds. Analysis of data was made with the Blitz pro 1.2 software, which calculated association constant (ka) and dissociation constant (kd) and determined the affinity constant KD […].

[6] = biological target: T1, recombinant hSIRPa (Sino Biologicals, …); assay: ELISA on immobilized hSIRPa-His, anti-human IgG detection, first experiment; first experiment
Description: (§5) Method: The binding activity of the anti-SIRPa antibodies was assessed by ELISA.

[7] = biological target: T1, recombinant hSIRPa (Sino Biologicals, …); assay: ELISA on immobilized SIRPa-His, peroxidase anti-human IgG, DO 450nm [all panels]
Description: as §1

[8] = biological target: T1, recombinant hSIRPa (Sino Biologicals, …); assay: competition ELISA on immobilized SIRPa-His; competitor biotinylated CD47-Fc at 6 ug/ml, streptavidin-peroxidase [second experiment table]
Description: as §2

[9] = biological target: T1, recombinant hSIRPa (Sino Biologicals, …); assay: ELISA on immobilized hSIRPa-His, anti-human IgG detection, third experiment
Description: as §5

[10] = biological target: T1, recombinant hSIRPa (Sino Biologicals, …); assay: ELISA on immobilized hSIRPa-His, anti-human IgG detection, second experiment; second experiment
Description: as §5

[11] = biological target: T5, recombinant hSIRPg-His (Sino Biologicals, reference 11828-H08H) (human, UniProt Q9P1W8 29-360); assay: BLI (Blitz); SIRPg-His on Ni-NTA biosensor, antibody at 10 ug/ml or 20 ug/ml (Example 9) [B, table A]
T5 construct: also called human SIRPg-His; not shown: His tag
Description: FIG. 8. (A) Affinity analysis by Blitz of anti-SIRP antibodies on human SIRPg recombinant protein. SIRPg-His recombinant protein was immobilized onto a NINTA biosensor and the indicated antibodies were added at 10 μg/ml. […] (B) Binding analysis by ELISA assay of anti-SIRP antibodies on SIRPg (human SIRPg-His coating and anti-human kappa detection).
as §4, with “hSIRPg-His (Sino Biologicals, Beijing, China;” for “hSIRPb-His (Antibodies-online; USA;”, “11828-H08H)” for “ABIN3077231)”

[12] = biological target: T1, recombinant hSIRPa (Sino Biologicals, …); assay: ELISA on immobilized SIRPa-His, anti-human detection, DO 450nm [B,C, panel B table]

B1: modified anti-SIRPa HEFLB antibody with ECD of CD86 on the light chain (antibody, human IgG4 S228P, kappa)
heavy: not shown
light: DVVMTQSPLSLPVTLGQPASISCRSSQSLVHSYGNTYLYWFQQRPGQSPRLLIYRVSNRFSGVPDRFSGSGSGTDFTLKISRVEAEDVGVYYCFQGTHVPYTFGGGTKVEIKRTVAAPSVFIFPPSDEQLKSGTASVVCLLNNFYPREAKVQWKVDNALQSGNSQESVTEQDSKDSTYSLSSTLTLSKADYEKHKVYACEVTHQGLSSPVTKSFNRGECGGGGSGGGGSGGGGSAPLKIQAYFNETADLPCQFANSQNQSLSELVVFWQDQENLVLNEVYLGKEKFDSVHSKYMGRTSFDSDSWTLRLHNLQIKDKGLYQCIIHHKKPTGMIRIHQMNSELSVLANFSQPEIVPISNITENVYINLTCSSIHGYPEPKKMSVLLRTKNSTIEYDGVMQKSQDNVTELYDVSISLSVSFPDVTSNMTIFCILETDKTRLLSSPFSIELEDPQPPPDH
notes: as m32, ECD of CD86; also called VH+VLprot (CD86); HEF + LB-CD86
EC50 (read off the curve) [1]: ~8 ng/mL | IC50 (read off the curve) [2]: ~200 ng/mL | binding result (CTLA4-Fc): binds

B2: modified anti-SIRPa HEFLB antibody with ECD of 4-1BBL on the light chain (antibody, human IgG4 S228P, kappa)
heavy: not shown
light: DVVMTQSPLSLPVTLGQPASISCRSSQSLVHSYGNTYLYWFQQRPGQSPRLLIYRVSNRFSGVPDRFSGSGSGTDFTLKISRVEAEDVGVYYCFQGTHVPYTFGGGTKVEIKRTVAAPSVFIFPPSDEQLKSGTASVVCLLNNFYPREAKVQWKVDNALQSGNSQESVTEQDSKDSTYSLSSTLTLSKADYEKHKVYACEVTHQGLSSPVTKSFNRGECGGGGSGGGGSGGGGSREGPELSPDDPAGLLDLRQGMFAQLVAQNVLLIDGPLSWYSDPGLAGVSLTGGLSYKEDTKELVVAKAGVYYVFFQLELRRVVAGEGSGSVSLALHLQPLRSAAGAAALALTVDLPPASSEARNSAFGFQGRLLHLSAGQRLGVHLHTEARARHAWQLTQGATVLGLFRVTPEIPAGLPSPRSE
notes: as m32, ECD of 4-1BBL; also called VH+VLprot (4-1BBL); HEF + LB-4-1BBL
EC50 (read off the curve) [3]: ~7 ng/mL | EC50 (read off the curve) (4-1BBFcHis): ~200 ng/mL

B3: HEFLB (antibody, human IgG4 S228P, kappa)
heavy: not shown
light: DVVMTQSPLSLPVTLGQPASISCRSSQSLVHSYGNTYLYWFQQRPGQSPRLLIYRVSNRFSGVPDRFSGSGSGTDFTLKISRVEAEDVGVYYCFQGTHVPYTFGGGTKVEIKRTVAAPSVFIFPPSDEQLKSGTASVVCLLNNFYPREAKVQWKVDNALQSGNSQESVTEQDSKDSTYSLSSTLTLSKADYEKHKVYACEVTHQGLSSPVTKSFNRGEC
notes: humanized 18D5 variant; IgG4m (S228P) / kappa; also called anti-SIRPa HEFLB
Kd [4]: 0.289 nM | koff [4]: 0.000189 s⁻¹ | kon [4]: 654000 M⁻¹ s⁻¹ | Kd [5]: 86.9 nM | koff [5]: 0.00171 s⁻¹ | kon [5]: 19400 M⁻¹ s⁻¹ | EC50 [6]: 4.4 ng/mL | EC50 (read off the curve) [7]: ~10 ng/mL | IC50 [8]: 186 ng/mL

B4: modified anti-SIRPa HEFLB antibody with ECD of CD86 on the heavy chain (antibody, human IgG4 S228P, kappa)
heavy: not shown
light: B3 light
notes: as m25, ECD of CD86; also called VHprot+VL (CD86); VH-CD86
EC50 (read off the curve) [1]: ~9 ng/mL | IC50 (read off the curve) [2]: ~200 ng/mL | binding result (CTLA4-Fc): binds

B5: chimeric mouse/human 18D5 antibody (antibody, human IgG4 S228P, kappa)
heavy: not shown
light: DVVMTQTPLSLPVSLGDQASISCRSSQSLVHSYGNTYLYWYLQKPGQSPKLLIYRVSNRFSGVPDRFSGSGSGTDFTLKISRVEAEDLGVYFCFQGTHVPYTFGSGTKLEIKRTVAAPSVFIFPPSDEQLKSGTASVVCLLNNFYPREAKVQWKVDNALQSGNSQESVTEQDSKDSTYSLSSTLTLSKADYEKHKVYACEVTHQGLSSPVTKSFNRGEC
notes: mouse variable domains on human IgG4m (S228P) / kappa constant domains; also called chimeric antibody; chimeric 18D5
EC50 [9]: 2.74 ng/mL | Kd [4]: 0.344 nM | koff [4]: 5.14e-05 s⁻¹ | kon [4]: 149000 M⁻¹ s⁻¹ | Kd [5]: 15.7 nM | koff [5]: 0.00138 s⁻¹ | kon [5]: 88400 M⁻¹ s⁻¹ | EC50 [6]: 2.9 ng/mL | EC50 [10]: 4.06 ng/mL | Kd [11]: 64.8 nM | koff [11]: 0.00319 s⁻¹ | kon [11]: 49300 M⁻¹ s⁻¹ | IC50 [8]: 304 ng/mL

B6: HELA (antibody, V domains shown)
VH: EVQLVQSGAEVKKPGESLRISCKASGYSFTSYWVHWVRQMPGKGLEWMGNIDPSDSDTHYSPSFQGHVTLSVDKSISTAYLQLSSLKASDTAMYYCVRGGTGTLAWFAYWGQGTLVTVSS
VL: DVVMTQSPLSLPVTLGQPASISCRSSQSLVHSYGNTYLYWYQQRPGQSPRLLIYRVSNRFSGVPDRFSGSGSGTDFTLKISRVEAEDVGVYFCFQGTHVPYTFGGGTKVEIK
notes: also called humanized 18D5 variant HELA
EC50 [12]: 4.61 ng/mL

B7: HCLA (antibody, human IgG4 S228P, kappa, V domains shown)
VH: B6 VH with L104M
VL: DVVMTQSPLSLPVTLGQPASISCRSSQSLVHSYGNTYLYWYQQRPGQSPRLLIYRVSNRFSGVPDRFSGSGSGTDFTLKISRVEAEDVGVYFCFQGTHVPYTFGGGTKVEIKR
notes: humanized 18D5 variant; also called humanized 18D5 variant HCLA
EC50 [10]: 5.6 ng/mL

From patent US20210179728A1 (OSE IMMUNOTHERAPEUTICS, published 2021)
